The text below walks through data of PMC2119935.

In the test the target is F-actin (polymerised rabbit skeletal muscle actin) (rabbit) (UniProt P68135). The test is described as follows: co-sedimentation.

As usually defined, the Kd is the free concentration of one partner at which half of the binding sites on the other are occupied at equilibrium, for simple one-to-one binding. Low values mean higher affinity, high ones lower affinity.

Substance “GST-ΔFok fusion protein (c-Abl type IV amino acids 1015-1142 fused to GST) (domain or fragment)” registered a Kd of 18 µM.
